Reference: doi:10.1101/2022.12.06.519258 (bioRxiv, 2022)
One block for each molecule: values may come before it.

What was measured:
[1] = biological target: human KRAS^G12V (residues 1-169) (human) (UniProt P01116); experiment: stopped-flow fluorescence kinetics
[2] = biological target: human SOS1 (residues 564-1049), SOS1^cat (Homo sapiens, UniProt Q07889, labelled with Alexa488 for flow cytometry (SOS1-488)); experiment: BLI

fold decrease of KD1 with Nb22 against SOS1 alone [1]: 3.1 fold
fold increase of k1 (kon) with excess Nb22 against SOS1 alone [1]: 4 fold
kon [1]: 4.2e+06 M⁻¹ s⁻¹
ratio of k-1 (koff) with Nb14 to SOS1 alone [1]: 0.3 fold
Molecule: human SOS1 (residues 564-1049), SOS1^cat (from UniProt Q07889 564-1049) (domain or fragment)

Kd [2]: 70 ± 10 nM
B1: Nanobody Nb77 (VHH)
VHH: QVQLVESGGGLVQPGGSLRLSCAASRSISSINIMGWYRQAPGKERESVASHTRDGSTDYADSVKGRFTISRDNAKNTVYLQMNSLKPEDTAVYYCTTLTGFPRIRSWGQGTQVTVSS
